Experimental data reported in patent publication US20220008464A1.

Target: TGFBR II (UniProt P37173)
Experiment: cell-based or functional assay

Sequence of TGFBR II (P37173 23-567): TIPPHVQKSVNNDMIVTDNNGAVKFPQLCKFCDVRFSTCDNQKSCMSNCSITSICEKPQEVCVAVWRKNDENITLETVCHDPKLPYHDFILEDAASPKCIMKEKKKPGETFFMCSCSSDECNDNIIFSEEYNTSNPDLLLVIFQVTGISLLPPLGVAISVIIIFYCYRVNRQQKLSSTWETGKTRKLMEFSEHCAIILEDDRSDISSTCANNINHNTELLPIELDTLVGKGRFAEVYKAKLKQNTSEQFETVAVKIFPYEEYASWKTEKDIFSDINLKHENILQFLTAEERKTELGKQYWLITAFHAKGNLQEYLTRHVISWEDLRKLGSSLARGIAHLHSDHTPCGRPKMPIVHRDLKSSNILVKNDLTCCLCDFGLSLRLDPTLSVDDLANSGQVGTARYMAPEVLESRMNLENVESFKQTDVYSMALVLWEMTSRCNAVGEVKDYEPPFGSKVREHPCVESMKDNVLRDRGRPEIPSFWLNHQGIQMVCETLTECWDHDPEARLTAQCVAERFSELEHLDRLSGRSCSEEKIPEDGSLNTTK

## TGFβ1 (from UniProt P01137 279-390) (ligand)
  decrease in release of IL-2 and IFN-γ by P4-CAR-T cells with 5 ng/ml TGFβ1: 50%
